Holding throughout (assay): purified protein
Substrate in data set [1]: NC(=O)CC[C@H](N)C(=O)O
The following applies: pH 8.5, 25 °C, 20 mM MgCl2, XMP […], ATP 2 mM fixed.

Substrate in data set [2]: Nc1ncnc2c1ncn2[C@@H]1O[C@H](COP(=O)(O)OP(=O)(O)OP(=O)(O)O)[C@@H](O)[C@H]1O
The following applies: pH 8.5, 25 °C, 20 mM MgCl2, XMP […], Gln 5 mM fixed.

Substrate in data set [3]: O=c1[nH]c(=O)c2ncn([C@@H]3O[C@H](COP(=O)(O)O)[C@@H](O)[C@H]3O)c2[nH]1
Particulars: pH 8.5, 25 °C, 20 mM MgCl2, ATP 2 mM, Gln 5 mM fixed.

A word on the Km: it is the substrate concentration at which the rate is half of its maximum. As usually defined, the kcat is the number of substrate molecules converted per active site and unit of time at saturation.

B1: PfGMPS (Plasmodium falciparum 3D7) (protein)
chain: MEGEEYDKILVLNFGSQYFHLIVKRLNNIKIFSETKDYGVELKDIKDMNIKGVILSGGPYSVTEAGSPHLKKEVFEYFLEKKIPIFGICYGMQEIAVQMNGEVKKSKTSEYGCTDVNILRNDNINNITYCRNFGDSSSAMDLYSNYKLMNETCCLFENIKSDITTVWMNHNDEVTKIPENFYLVSSSENCLICSIYNKEYNIYGVQYHPEVYESLDGELMFYNFAYNICKCKKQFDPIRYHELELKNIEKYKHDHYVIAAMSGGIDSTVAAAYTHKIFKERFFGIFIDNGLLRKNEAENVYTFLKSTFPDMNITKIDASENFLSNLQGVTDPEQKRKIIGKLFIEEFEKAVNNIDIDINKTFLLQGTLYPDIIESKCSKNLSDTIKTHHNVGGLPKNLKFKLFEPFKYLFKDDVKTLSRELNLPEEITNRHPFPGPGLAIRVIGEINKHKLNILREVDDIFINDLKQYGLYNQISQAFAVLLSSKSVGVRGDARSYDYVCVLRAVKTSSFMTANWYQIPYDILDKITTRILSEVKGVNRILYDVSSKPPATIEFE
Take B1: the Michaelis-Menten constant (Km) in data set [1] is given as 0.33 ± 0.02 mM; in data set [2] it was 119 ± 2 µM; in data set [3], 7.1 ± 1 µM. Also, the kcat in data set [1] came to 0.766 ± 0.005 s⁻¹; in data set [2] it was 0.893 ± 0.039 s⁻¹; in data set [3], 0.741 ± 0.058 s⁻¹.

The record behind these values is publication doi:10.1101/808618v2.
